# Reference: patent publication US8242083B2, “Kinase substrates” (PerkinElmer Health Sciences, Inc., priority 2008, dated 2012)
# What was measured:
# Type in all cases: biochemical
# FGFR2 = FGFR2 (Homo sapiens, UniProt P21802); experiment: TR-FRET kinase assay, FGFR2; conditions: Kinase Concentration 0.25 nM; 50 nM ULight-labeled substrate, 200 micromolar ATP, 2 hours
# Method: (§1) TR-FRET kinase assays are performed under standardized conditions: various individual kinases are incubated with 50 nM of kinase substrate BRB1 labeled with the TR-FRET acceptor dye ULight (PerkinElmer) and 200 micromolar ATP in 10 μL of kinase assay buffer (50 mM HEPES pH7.5, 10 mM MgCl2, 3 mM MnCl2, 1 mM EGTA, 2 mM DTT and 0.01% Tween-20) for 2 hours at room temperature. Reactions are stopped with EDTA, and anti-phospho-tyrosine antibodies (clone PT66) labeled with the TR-FRET europium chelate donor dye are added to a final concentration of 2 nM in a final volume of 20 μL. The TR-FRET signal emitted at 665 nm is read one hour after the addition of antibodies using a TR-FRET plate reader such as the Envision® Multilabel Plate reader (PerkinElmer). The emitted signal at 665 nm is proportional to the extent of peptide phosphorylation, Control reactions indicative of background are performed excluding ATP from the reaction.
# (§2) Assay conditions are identical to those used described for FIG. 1.
# INSR = INSR (Homo sapiens, UniProt P06213); experiment: TR-FRET kinase assay, INSR; conditions: Kinase Concentration 20 nM; 50 nM ULight-labeled substrate, 200 micromolar ATP, 2 hours
# Method: as §1, §2
# JAK2 = JAK2 (Homo sapiens, UniProt O60674); experiment: TR-FRET kinase assay, JAK2; conditions: Kinase Concentration 1 nM; 50 nM ULight-labeled substrate, 200 micromolar ATP, 2 hours
# Sequence of JAK2 (O60674 whole entry, species assumed): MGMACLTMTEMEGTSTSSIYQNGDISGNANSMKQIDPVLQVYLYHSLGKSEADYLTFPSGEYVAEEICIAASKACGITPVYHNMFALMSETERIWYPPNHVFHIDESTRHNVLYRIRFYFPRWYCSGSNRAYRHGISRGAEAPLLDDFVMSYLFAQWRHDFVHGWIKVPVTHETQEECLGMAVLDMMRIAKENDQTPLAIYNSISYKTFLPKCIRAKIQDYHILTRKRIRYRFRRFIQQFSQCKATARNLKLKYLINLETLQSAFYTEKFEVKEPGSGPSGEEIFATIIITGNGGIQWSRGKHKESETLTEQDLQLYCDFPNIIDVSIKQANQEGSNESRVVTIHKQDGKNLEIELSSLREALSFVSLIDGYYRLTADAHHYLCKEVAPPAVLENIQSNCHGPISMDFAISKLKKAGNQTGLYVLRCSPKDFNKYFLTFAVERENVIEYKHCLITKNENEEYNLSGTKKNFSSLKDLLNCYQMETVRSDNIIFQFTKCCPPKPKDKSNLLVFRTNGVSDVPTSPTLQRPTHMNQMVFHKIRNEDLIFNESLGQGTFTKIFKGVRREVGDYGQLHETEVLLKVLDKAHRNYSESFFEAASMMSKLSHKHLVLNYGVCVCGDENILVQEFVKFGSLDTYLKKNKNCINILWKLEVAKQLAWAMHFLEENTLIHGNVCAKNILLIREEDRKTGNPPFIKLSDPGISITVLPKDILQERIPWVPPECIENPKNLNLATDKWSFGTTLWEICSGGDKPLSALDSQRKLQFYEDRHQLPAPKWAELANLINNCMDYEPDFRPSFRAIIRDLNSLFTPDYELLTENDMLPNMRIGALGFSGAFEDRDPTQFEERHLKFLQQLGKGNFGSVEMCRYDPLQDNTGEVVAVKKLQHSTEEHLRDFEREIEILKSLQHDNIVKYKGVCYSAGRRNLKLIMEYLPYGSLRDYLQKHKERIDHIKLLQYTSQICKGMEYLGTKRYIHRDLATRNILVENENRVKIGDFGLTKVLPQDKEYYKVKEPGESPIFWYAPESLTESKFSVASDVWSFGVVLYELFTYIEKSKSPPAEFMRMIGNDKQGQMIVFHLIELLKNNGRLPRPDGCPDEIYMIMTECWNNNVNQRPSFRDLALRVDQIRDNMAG
# Method: as §1, §2
# 83 tyrosine kinases = experiment: Panel of 83 TR-FRET tyrosine kinase assays; conditions: 83 tyrosine kinases tested; conditions of Example 1
# Method: as §1, §2
# The BRB2 peptide is tested with 83 tyrosine kinases in assay conditions identical to those used for BRB1 in Example 1. Data obtained with BRB2 indicate that the peptide is phosphorylated by 65 kinases out of 83 (78%), with signal to noise ratio of >3.
# LYNa = LYNa (Homo sapiens, UniProt P07948); experiment: TR-FRET kinase assay, LYNa; conditions: Kinase Concentration 0.5 nM; 50 nM ULight-labeled substrate, 200 micromolar ATP, 2 hours
# Sequence of LYNa (P07948 whole entry, species assumed): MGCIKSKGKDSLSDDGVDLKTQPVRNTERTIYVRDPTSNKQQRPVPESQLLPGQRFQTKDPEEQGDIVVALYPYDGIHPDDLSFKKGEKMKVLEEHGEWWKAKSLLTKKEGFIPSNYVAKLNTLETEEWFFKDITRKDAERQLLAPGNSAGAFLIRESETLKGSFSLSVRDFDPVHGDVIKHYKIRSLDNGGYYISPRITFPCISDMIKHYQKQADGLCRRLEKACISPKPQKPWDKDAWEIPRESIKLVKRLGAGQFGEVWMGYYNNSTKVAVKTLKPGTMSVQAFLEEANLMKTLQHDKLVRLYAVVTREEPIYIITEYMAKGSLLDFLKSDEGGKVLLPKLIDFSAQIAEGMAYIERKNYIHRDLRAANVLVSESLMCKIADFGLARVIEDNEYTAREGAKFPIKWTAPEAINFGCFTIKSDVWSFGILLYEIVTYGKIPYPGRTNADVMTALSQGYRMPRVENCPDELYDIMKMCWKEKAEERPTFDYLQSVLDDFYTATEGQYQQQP
# Method: as §1, §2
# TRKA (NTRK1) = TRKA (NTRK1) (Homo sapiens, UniProt P04629); experiment: TR-FRET kinase assay, TRKA (NTRK1); conditions: Kinase Concentration 0.5 nM; 50 nM ULight-labeled substrate, 200 micromolar ATP, 2 hours
# Sequence of TRKA (NTRK1) (P04629 33-796, species assumed): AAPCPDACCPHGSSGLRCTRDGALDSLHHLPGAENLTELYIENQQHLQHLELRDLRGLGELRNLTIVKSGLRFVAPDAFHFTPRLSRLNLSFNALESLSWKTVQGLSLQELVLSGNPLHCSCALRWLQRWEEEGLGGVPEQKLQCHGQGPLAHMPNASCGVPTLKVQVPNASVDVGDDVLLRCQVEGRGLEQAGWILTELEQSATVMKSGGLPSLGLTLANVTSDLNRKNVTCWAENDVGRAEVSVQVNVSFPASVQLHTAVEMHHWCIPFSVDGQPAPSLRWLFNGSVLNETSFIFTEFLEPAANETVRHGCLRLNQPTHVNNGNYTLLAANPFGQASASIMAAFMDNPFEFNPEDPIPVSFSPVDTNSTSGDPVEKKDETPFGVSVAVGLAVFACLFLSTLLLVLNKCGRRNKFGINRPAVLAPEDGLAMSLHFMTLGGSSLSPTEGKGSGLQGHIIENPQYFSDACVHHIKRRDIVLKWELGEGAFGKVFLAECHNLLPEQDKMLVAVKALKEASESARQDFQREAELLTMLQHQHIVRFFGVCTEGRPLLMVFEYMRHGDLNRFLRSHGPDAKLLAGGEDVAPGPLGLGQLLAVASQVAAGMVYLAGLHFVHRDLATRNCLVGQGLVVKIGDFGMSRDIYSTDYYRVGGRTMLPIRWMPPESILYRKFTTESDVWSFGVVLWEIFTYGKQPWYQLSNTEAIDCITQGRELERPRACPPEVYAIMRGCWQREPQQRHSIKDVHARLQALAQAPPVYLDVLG
# Method: as §1, §2
# JAK3 = molecular target: T1, JAK3 (Homo sapiens, UniProt P52333); experiment: TR-FRET kinase assay, JAK3; conditions: Kinase Concentration 0.5 nM; 50 nM ULight-labeled substrate, 200 micromolar ATP, 2 hours
# T1 sequence (P52333 1-1124): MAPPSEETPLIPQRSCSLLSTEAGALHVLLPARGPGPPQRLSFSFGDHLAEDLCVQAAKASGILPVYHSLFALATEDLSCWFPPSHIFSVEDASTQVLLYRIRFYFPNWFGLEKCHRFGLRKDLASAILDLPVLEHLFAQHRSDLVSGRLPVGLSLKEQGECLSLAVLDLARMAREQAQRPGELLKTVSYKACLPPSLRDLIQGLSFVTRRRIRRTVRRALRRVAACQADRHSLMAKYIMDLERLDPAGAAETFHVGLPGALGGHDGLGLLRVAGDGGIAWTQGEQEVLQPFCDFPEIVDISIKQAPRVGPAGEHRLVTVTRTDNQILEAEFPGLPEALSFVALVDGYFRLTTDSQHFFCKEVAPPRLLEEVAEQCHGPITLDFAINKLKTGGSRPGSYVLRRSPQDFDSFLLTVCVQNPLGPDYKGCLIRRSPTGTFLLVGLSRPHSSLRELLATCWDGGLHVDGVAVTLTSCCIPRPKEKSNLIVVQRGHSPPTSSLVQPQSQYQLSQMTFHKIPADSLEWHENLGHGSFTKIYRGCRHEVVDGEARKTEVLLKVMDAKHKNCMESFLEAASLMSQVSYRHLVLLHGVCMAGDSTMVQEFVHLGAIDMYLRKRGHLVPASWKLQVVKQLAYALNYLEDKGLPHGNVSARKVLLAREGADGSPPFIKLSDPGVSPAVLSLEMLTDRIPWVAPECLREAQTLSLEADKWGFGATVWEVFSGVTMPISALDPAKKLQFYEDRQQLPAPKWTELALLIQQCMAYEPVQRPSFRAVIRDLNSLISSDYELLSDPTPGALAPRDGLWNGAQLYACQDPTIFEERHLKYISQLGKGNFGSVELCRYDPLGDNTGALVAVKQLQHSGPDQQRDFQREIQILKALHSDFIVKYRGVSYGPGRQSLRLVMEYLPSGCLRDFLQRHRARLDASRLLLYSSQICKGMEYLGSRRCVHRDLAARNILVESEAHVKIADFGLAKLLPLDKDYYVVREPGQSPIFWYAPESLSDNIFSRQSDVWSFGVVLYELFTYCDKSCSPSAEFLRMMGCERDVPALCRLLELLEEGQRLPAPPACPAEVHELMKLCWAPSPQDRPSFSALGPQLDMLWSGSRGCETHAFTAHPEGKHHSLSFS
# Method: as §1, §2
# PDGFRβ = PDGFRβ (Homo sapiens, UniProt P09619); experiment: TR-FRET kinase assay, PDGFRβ; conditions: Kinase Concentration 0.25 nM; 50 nM ULight-labeled substrate, 200 micromolar ATP, 2 hours
# Sequence of PDGFRβ (P09619 33-1106, species assumed): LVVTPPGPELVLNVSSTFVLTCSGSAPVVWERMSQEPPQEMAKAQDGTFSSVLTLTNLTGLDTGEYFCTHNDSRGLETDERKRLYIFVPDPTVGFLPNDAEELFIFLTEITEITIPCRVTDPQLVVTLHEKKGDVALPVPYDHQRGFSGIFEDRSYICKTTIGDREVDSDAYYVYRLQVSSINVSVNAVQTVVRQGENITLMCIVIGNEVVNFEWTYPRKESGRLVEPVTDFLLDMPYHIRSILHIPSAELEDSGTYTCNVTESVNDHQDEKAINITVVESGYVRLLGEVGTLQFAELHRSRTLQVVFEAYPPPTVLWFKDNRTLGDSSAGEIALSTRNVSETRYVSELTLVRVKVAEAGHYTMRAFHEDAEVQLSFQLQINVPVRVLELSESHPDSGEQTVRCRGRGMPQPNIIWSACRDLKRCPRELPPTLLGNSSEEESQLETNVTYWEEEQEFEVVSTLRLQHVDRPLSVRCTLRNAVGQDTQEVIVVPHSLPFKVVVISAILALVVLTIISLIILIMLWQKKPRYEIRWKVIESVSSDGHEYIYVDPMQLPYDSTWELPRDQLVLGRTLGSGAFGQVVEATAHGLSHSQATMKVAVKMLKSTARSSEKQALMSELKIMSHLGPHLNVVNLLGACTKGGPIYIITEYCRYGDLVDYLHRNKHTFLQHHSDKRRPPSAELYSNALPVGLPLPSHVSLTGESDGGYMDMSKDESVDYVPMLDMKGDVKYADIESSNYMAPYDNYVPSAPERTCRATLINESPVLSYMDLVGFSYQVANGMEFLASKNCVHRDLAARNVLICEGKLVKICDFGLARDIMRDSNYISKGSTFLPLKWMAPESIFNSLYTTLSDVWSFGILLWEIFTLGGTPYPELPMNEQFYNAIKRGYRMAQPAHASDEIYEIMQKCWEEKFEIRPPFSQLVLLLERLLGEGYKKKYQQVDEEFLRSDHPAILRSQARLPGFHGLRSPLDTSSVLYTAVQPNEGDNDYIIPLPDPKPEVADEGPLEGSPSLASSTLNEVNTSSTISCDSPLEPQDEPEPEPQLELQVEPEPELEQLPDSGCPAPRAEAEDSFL
# Method: as §1, §2
# FMS (CSFR) = FMS (CSFR) (Homo sapiens, UniProt P07333); experiment: TR-FRET kinase assay, FMS (CSFR); conditions: Kinase Concentration 0.25 nM; 50 nM ULight-labeled substrate, 200 micromolar ATP, 2 hours
# Method: as §1, §2
# TEC = molecular target: T2, TEC (Homo sapiens, UniProt P42680); experiment: TR-FRET kinase assay, TEC; conditions: Kinase Concentration 0.5 nM; 50 nM ULight-labeled substrate, 200 micromolar ATP, 2 hours
# T2 sequence (P42680 1-631): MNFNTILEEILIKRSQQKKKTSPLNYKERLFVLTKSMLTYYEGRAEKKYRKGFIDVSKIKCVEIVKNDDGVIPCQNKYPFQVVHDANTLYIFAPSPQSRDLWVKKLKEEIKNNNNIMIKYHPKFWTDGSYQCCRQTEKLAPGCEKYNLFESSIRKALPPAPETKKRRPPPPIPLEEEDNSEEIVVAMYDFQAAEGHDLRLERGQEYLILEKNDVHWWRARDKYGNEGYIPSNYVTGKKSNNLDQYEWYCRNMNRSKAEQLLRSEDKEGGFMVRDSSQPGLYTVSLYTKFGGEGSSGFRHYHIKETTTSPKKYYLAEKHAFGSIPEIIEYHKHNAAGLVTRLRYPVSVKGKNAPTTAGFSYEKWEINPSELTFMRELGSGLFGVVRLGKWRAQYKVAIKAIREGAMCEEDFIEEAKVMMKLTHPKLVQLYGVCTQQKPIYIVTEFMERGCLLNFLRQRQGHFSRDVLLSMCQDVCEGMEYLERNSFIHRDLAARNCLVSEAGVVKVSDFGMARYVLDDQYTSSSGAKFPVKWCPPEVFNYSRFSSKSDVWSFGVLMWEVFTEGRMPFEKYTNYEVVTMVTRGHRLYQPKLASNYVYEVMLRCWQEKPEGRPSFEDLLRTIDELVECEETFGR
# Method: as §1, §2
# CSK = CSK (Homo sapiens, UniProt P41240); experiment: TR-FRET kinase assay, CSK; conditions: Kinase Concentration 20 nM; 50 nM ULight-labeled substrate, 200 micromolar ATP, 2 hours
# Sequence of CSK (P41240 whole entry, species assumed): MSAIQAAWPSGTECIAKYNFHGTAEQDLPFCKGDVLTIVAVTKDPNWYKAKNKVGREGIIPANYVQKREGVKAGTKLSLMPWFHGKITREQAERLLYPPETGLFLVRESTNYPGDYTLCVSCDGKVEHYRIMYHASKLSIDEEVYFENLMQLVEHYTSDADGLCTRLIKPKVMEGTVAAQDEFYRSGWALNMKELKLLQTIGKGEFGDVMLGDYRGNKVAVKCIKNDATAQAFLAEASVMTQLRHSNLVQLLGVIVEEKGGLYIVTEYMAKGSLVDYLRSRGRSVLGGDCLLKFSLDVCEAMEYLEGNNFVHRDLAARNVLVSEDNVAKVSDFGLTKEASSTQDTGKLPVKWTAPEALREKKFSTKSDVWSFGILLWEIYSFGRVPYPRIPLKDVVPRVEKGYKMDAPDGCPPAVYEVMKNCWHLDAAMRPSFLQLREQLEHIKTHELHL
# Method: as §1, §2
sequence,measurement,setting,value
C AYE AYE AYE K EYA EYA EYA K AYA EYE R (CAYEAYEAYEKEYAEYAEYAKAYAEYER; tyrosine kinase substrate peptide) [BRB1],Signal to Noise ratio with BRB1 Peptide,FGFR2,27.1
same,Signal to Noise ratio with BRB1 Peptide,INSR,4.0
same,Signal to Noise ratio with BRB1 Peptide,JAK2,35.5
same,Number of kinases out of 83 that phosphorylated the peptide with signal to noise ratio of >3,83 tyrosine kinases,72
same,Percentage of 83 kinases that phosphorylated the peptide with signal to noise ratio of >3,83 tyrosine kinases,87%
same,Signal to Noise ratio with BRB1 Peptide,LYNa,32.5
same,Signal to Noise ratio with BRB1 Peptide,TRKA (NTRK1),23.2
same,Signal to Noise ratio with BRB1 Peptide,JAK3,16.1
same,Signal to Noise ratio with BRB1 Peptide,PDGFRβ,4.7
same,Signal to Noise ratio with BRB1 Peptide,FMS (CSFR),3.0
same,Signal to Noise ratio with BRB1 Peptide,TEC,18.6
same,Signal to Noise ratio with BRB1 Peptide,CSK,27.2
